By Kd is commonly meant the concentration at which binding is half-saturated.

Here are results for 10 molecules from article PMC10828496 (Cell Discovery, 2024).

The target of series [1] is T1, METTL15^70–407 (Homo sapiens, UniProt A6NJ78).
T1 construct: residues 70-407; N-terminal SUMO tag cleaved with ULP1; E. coli Rosetta (DE3)
T1 sequence (A6NJ78 70-407): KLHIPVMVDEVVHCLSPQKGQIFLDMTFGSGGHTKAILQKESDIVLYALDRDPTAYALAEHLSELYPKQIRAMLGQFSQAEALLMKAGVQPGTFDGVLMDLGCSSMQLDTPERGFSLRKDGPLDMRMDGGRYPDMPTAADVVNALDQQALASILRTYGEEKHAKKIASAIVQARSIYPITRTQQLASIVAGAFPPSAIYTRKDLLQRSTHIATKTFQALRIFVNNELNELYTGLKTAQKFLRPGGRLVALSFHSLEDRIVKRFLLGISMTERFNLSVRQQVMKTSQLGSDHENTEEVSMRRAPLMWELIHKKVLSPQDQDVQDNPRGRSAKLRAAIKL
Kind of series: isothermal titration calorimetry. The series is classed as binding.

The target in series [2] is T2, METTL15^70–407 (Homo sapiens, UniProt A6NJ78, D119A).
T2 construct: residues 70-407; N-terminal SUMO tag cleaved with ULP1; E. coli Rosetta (DE3)
T2 sequence (A6NJ78 70-407 D119A): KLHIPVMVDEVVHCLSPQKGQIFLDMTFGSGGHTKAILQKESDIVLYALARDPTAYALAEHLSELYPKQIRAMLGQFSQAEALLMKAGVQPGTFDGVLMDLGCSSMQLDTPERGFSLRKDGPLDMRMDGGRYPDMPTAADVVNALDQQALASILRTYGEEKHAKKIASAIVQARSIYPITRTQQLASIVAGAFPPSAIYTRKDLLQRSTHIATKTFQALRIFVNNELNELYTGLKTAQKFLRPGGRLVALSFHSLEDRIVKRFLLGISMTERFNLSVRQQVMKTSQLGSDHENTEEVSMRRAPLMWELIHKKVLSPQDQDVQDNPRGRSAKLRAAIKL
Kind of series: isothermal titration calorimetry. Format: binding.

Series [3] addresses METTL15^70–407 (human METTL15, residues 70–407), wild type (human, UniProt A6NJ78 70-407). Kind of series: ITC; Microcal PEAQ-ITC, 20 °C, buffer B (50 mM Na2HPO4, 150 mM NaCl, pH 7.0); hsRBFA 600 μM and METTL15 40 μM; single binding site model. The note with it: both partners purified. (In general: In ITC the heat of successive injections is recorded.)
The target of the next series is METTL15^70–407 D209A (human, UniProt A6NJ78 70-407, D209A). The description is as above. Conditions: both partners purified.
The next series concerns the target METTL15^70–407 N212A (human, UniProt A6NJ78 70-407, N212A). The description is as above. The note with it: both partners purified.
A further series concerns the target T3, METTL15 WT (Homo sapiens, UniProt A6NJ78 70-407).
T3 sequence: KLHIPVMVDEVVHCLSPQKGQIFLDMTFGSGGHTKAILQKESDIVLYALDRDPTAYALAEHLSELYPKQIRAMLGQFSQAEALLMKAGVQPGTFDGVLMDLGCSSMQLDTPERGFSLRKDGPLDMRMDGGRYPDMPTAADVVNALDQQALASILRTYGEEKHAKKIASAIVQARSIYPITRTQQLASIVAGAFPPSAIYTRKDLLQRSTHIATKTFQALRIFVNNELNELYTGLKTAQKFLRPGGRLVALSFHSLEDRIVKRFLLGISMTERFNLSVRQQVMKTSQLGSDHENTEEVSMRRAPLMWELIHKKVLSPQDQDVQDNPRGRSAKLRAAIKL
The series can be described thus: fluorescence polarization; FP: dilution buffer B (50 mM Na2HPO4, 150 mM NaCl, pH 7.0), 20 C, 15 min incubation, 80 nM FAM-RNA stock mixed 1:1 (40 nM final); 1:1 binding model. Conditions: protein: recombinant, tags: SUMO tag removed (ULP1), label: 5'-FAM. For orientation: In fluorescence polarisation assays a small probe gives low polarisation when free and higher when bound to something large.

Series [4] addresses T4, METTL15 R327A/K330A/R331A (Homo sapiens, UniProt A6NJ78 70-407, R327A;K330A;R331A).
T4 sequence: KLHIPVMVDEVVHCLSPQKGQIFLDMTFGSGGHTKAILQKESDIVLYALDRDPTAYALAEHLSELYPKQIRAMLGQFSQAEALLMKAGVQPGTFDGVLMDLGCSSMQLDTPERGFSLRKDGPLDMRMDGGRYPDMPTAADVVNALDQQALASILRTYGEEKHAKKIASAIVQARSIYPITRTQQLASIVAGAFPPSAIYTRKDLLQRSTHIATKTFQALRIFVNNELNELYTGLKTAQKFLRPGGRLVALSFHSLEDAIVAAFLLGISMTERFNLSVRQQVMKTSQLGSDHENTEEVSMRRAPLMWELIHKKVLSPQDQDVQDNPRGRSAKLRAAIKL
Described as above. Conditions: protein: recombinant; tags: SUMO tag removed (ULP1); label: 5'-FAM; hairpin.

For series [5], the target named is T5, METTL15 F262A/P263A/K270A (Homo sapiens, UniProt A6NJ78 70-407, F262A;P263A;R270A).
T5 sequence: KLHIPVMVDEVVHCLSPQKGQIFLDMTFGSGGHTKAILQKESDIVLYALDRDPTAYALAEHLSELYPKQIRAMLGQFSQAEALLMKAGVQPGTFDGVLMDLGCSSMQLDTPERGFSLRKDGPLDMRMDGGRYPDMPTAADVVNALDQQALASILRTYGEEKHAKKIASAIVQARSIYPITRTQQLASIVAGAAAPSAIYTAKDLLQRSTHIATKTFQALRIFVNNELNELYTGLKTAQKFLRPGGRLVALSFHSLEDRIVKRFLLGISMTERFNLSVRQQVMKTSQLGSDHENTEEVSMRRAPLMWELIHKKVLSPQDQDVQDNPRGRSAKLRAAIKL
Described as above. The note with it: protein: recombinant; tags: SUMO tag removed (ULP1); label: 5'-FAM; hairpin.

The target in series [6] is T6, METTL15 H231A/K234A/F262A (Homo sapiens, UniProt A6NJ78 70-407, H231A;K234A;F262A).
T6 sequence: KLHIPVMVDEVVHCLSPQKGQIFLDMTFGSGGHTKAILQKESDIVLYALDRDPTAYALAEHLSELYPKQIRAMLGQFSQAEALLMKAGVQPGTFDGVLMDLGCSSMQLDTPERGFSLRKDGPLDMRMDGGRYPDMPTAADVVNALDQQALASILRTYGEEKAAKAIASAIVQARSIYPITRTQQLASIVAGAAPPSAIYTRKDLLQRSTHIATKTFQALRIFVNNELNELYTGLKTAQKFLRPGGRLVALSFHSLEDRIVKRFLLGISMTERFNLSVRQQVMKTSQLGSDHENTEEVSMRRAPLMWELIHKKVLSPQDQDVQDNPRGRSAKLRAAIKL
Described as above. Conditions: protein: recombinant; tags: SUMO tag removed (ULP1); label: 5'-FAM; hairpin.

For another series, the target named is T7, METTL15 K380A/K381A (Homo sapiens, UniProt A6NJ78 70-407, K380A;K381A).
T7 sequence: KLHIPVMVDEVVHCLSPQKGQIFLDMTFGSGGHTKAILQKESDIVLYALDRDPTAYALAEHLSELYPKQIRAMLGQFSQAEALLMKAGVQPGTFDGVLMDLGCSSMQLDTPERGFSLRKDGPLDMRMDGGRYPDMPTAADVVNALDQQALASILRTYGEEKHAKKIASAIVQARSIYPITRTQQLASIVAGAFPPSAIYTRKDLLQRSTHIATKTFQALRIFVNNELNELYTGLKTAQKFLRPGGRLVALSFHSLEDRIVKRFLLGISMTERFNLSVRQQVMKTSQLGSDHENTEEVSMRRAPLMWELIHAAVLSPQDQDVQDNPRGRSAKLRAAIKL
The description is as above. The note with it: protein: recombinant; tags: SUMO tag removed (ULP1); label: 5'-FAM; hairpin.

The target in series [7] is T8, METTL15 WT;hsRBFA C-terminal helix (Homo sapiens;Homo sapiens, UniProt A6NJ78;Q8N0V3 70-407;226-260, |).
T8 sequence 1: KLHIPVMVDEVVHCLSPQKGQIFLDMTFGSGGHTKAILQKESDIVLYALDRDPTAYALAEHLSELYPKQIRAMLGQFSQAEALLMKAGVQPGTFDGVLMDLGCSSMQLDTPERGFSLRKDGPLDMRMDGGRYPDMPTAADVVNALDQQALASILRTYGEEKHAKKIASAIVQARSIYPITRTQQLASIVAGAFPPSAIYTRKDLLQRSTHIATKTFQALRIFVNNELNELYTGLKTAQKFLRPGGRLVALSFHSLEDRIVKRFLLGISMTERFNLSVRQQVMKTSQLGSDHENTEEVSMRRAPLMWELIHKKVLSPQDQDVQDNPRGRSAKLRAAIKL
T8 sequence 2: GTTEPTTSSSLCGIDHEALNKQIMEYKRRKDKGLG
The series can be described thus: fluorescence polarization; +hsRBFA 226-260; FP: dilution buffer B (50 mM Na2HPO4, 150 mM NaCl, pH 7.0), 20 C, 15 min incubation, 80 nM FAM-RNA stock mixed 1:1 (40 nM final); 1:1 binding model. The note with it: protein: recombinant;recombinant, tags: SUMO tag removed (ULP1);GST tag removed (TEV), copies: 1;1, label: 5'-FAM.

Regarding `C[S+](CC[C@H](N)C(=O)O)C[C@H]1O[C@@H](n2cnc3c(N)ncnc32)[C@H](O)[C@@H]1O` (some centres unmarked) [SAM], the Kd on METTL15^70–407 [1] came out at 2990 ± 360 nM; on METTL15^70–407 [2] it was 17300 ± 310 nM.
For the molecule GTTEPTTSSSLCGIDHEALNKAIMEYKRRKDKGLG (domain or fragment, human, UniProt Q8N0V3 226-260, looked up) [hsRBFA^226–260 Q247A], in series [3], the Kd was 410 nM and the dH is -11.5 ± 0.2 kcal/mol.
Consider GTTEPTTSSSLCGIDHEALNKQIMEYKRRKDKGLG (domain or fragment, UniProt Q8N0V3 226-260, looked up) [hsRBFA^226–260 (human hsRBFA, residues 226–260), wild type], for which, in the series with METTL15^70–407 D209A, the affinity, expressed as Kd, was 7940 nM and the dH was -7.43 ± 0.32 kcal/mol. For the same molecule, in the series with METTL15^70–407 N212A, the Kd is 1120 nM and the dH was -9.5 ± 0.34 kcal/mol.
On to GTTEPTTSSSLCGIDHEALNKQIMEYARRKDKGLG (domain or fragment, human, UniProt Q8N0V3 226-260, looked up) [hsRBFA^226–260 K252A], for which, in [3], the affinity, expressed as Kd, was 19600 nM and the dH is -17.2 ± 3.1 kcal/mol.
In [3], GTTEPTTSSSLCGIDHEALAKQIMEYKRRKDKGLG (domain or fragment, human, UniProt Q8N0V3 226-260, looked up) [hsRBFA^226–260 N245A] gave a Kd of 610 nM and a dH of -10.6 ± 0.2 kcal/mol.
On to CGACCGGAAGCGGUCG (structured_RNA) [5'-FAM-h44_dsRNA2], for which, in the series with METTL15 WT (hairpin), the Kd was found to be 770 ± 50 nM.
For AAAAAAAAAAAAA (ssRNA) [5'-FAM-polyA13], the Kd in the series with METTL15 WT was found to be 610 ± 110 nM.
For the molecule CGACCGCCCGUAACGGUCG (structured_RNA) [5'-FAM-h44_dsRNA1], the Kd in series [4] was found to be 1030 ± 150 nM; in the series with METTL15 WT (hairpin) it was 1100 ± 90 nM; in the series with METTL15 K380A/K381A it was 2680 ± 290 nM; in series [7] (hairpin), 1150 ± 80 nM. Also, the binding result in [5] and in series [6] was “no binding” throughout.
Turning to CACACCGCCCGUCAC (ssRNA) [5'-FAM-h44_ssRNA3], the Kd stood at 2200 ± 330 nM with METTL15 WT and 1760 ± 160 nM in [7].
Regarding CGACACCGCCCGUAACGGUGUCG (structured_RNA) [5'-FAM-h44_dsRNA4], the equilibrium dissociation constant (Kd) in the series with METTL15 WT (hairpin) worked out at 2330 ± 130 nM.
